Biological target: recombinant mouse ICAM-1 (mouse) (UniProt P13597)
Assay: cell-based or functional assay

UniProt P13597, sequence (P13597 28-485 limits assumed): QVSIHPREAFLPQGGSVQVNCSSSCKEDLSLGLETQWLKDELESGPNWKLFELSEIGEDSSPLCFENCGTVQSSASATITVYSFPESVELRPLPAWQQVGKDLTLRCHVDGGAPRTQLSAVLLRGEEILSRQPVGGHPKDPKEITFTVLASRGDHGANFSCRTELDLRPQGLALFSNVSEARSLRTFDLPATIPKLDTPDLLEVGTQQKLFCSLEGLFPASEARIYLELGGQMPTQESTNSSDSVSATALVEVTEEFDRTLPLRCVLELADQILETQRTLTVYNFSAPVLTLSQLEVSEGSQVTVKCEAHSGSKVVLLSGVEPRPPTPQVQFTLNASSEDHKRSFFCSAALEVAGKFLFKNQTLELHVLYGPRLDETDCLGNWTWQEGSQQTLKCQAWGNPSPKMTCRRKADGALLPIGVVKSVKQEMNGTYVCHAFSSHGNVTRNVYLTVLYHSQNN

- adhesion of WT preactivated CD4+ T cells to ICAM-1-coated plates (percent of input cells): 10%
- adhesion of WT preactivated CD4+ T cells to ICAM-1-coated plates, fold over basal after CXCL12, CCL21 or anti-CD3: 2 to 5 fold
Substance: LFA-1 on mouse preactivated CD4+ T cells (from UniProt P24063 24-1162; P11835 24-771) (receptor)
